Measured values from PMC5171221.
Read-outs that look alike come from different tables or passages of the source.

T1: apododecin DtE (triple E variant) (Halobacterium salinarum, UniProt B0R5M0 1-68, E45A;del50-50;del51-51)
T1 sequence: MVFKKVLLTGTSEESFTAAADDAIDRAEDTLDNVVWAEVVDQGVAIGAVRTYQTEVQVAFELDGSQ

B1: flavin-dsDNA 100 bp surface tether (dsDNA)
DNA 1: GTCACGATGGCCCAGTAGTT
DNA 2: AACTACTGGGCCATCGTGAC
DNA 3: CGCCGCCGCCGACGACGCCATCGACCGCGCGGAGGACACCCTCGACAACGTGGTGTGGGCGTCACGATGGCCCAGTAGTT
DNA 4: GCCCACACCACGTTGTCGAGGGTGTCCTCCGCGCGGTCGATGGCGTCGTCGGCGGCGGCGAACTACTGGGCCATCGTGAC
modifications: strand 1 5' flavin (CofC4); strand 2 5' (dithiane)3, on gold
B2: flavin-dsLNA 7 bp surface tether (XNA)
?: GGGCGAC
DNA: GTCGCCC
modifications: LNA; strand 1 5' flavin (CofC4); strand 2 5' 1,2-dithiane, on gold

Tests used:
[1] = biological target: T1, apododecin DtE (triple E variant); assay: QCM-D
[2] = biological target: T1, apododecin DtE (triple E variant); assay: QCM-D; remark: listed apart in the source

| Binder | binding result [1] | binding result [2] |
| --- | --- | --- |
| B1 | binds |  |
| B2 |  | binds |
